Source: patent US20080085279A1
Read-outs that look alike come from different tables or passages of the source.

Experiments:
[1] = target: Recombinant MDM2 (baculovirus-expressed, pBlueBacHis2:MDM2) (human) (UniProt Q00987); assay: cell-based or functional assay
[2] = target: Recombinant MDM2 (baculovirus-expressed, pBlueBacHis2:MDM2) (human) (UniProt Q00987); assay: cell-based or functional assay; remark: listed apart in the source

Chain of Recombinant MDM2 (baculovirus-expressed, pBlueBacHis2:MDM2) (human) (Q00987 whole entry): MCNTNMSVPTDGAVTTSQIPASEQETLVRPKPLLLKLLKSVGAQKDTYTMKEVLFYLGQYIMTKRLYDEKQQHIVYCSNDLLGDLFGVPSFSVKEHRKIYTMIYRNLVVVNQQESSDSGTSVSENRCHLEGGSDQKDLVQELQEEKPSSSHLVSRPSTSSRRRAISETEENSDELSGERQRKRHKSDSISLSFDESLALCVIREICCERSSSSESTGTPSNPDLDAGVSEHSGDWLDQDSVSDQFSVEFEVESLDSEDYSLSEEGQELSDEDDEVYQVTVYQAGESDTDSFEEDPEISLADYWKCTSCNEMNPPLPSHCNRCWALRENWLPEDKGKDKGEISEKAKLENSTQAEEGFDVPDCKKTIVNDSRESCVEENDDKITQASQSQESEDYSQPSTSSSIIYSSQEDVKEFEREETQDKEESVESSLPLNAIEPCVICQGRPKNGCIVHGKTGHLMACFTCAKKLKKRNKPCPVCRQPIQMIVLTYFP

MDM2 auto-ubiquitination in vitro (molar ratio MTBP:MDM2) [1]: 10
MDM2 auto-ubiquitination in vitro (molar ratio MTBP:MDM2) [2]: 3
Substance: Recombinant hMTBP (bacterially expressed from pQE-hMTBP) (from UniProt Q96DY7 1-904)
